{"source": "patent US20190041402A1", "about": "(GOVERNING COUNCIL OF THE UNIVERSITY OF TORONTO, published 2019)", "binders": {"B1": {"name": "sb106 Fab (Fab, V domains shown)", "VH": "EVQLVESGGGLVQPGGSLRLSCAASGFNISYYSIHWVRQAPGKGLEWVAYISPSYGYTSYADSVKGRFTISADTSKNTAYLQMNSLRAEDTAVYYCARYYVYASHGWAGYGMDYWGQGTLVTVSS", "VL": "DIQMTQSPSSLSASVGDRVTITCRASQSVSSAVAWYQQKPGKAPKLLIYSASSLYSGVPSRFSGSRSGTDFTLTISSLQPEDFATYYCQQAGYSPITFGQGTKVEIKR", "notes": "also called Fsb106; clone 48"}}, "key": {"[1]": {"molecular_target": "T1, soluble human αKlotho (recombinant) (human, UniProt Q9UEF7 34-981)", "T1 construct": "also called Hu aKL; recombinant human αKlotho", "T1 sequence (looked up)": "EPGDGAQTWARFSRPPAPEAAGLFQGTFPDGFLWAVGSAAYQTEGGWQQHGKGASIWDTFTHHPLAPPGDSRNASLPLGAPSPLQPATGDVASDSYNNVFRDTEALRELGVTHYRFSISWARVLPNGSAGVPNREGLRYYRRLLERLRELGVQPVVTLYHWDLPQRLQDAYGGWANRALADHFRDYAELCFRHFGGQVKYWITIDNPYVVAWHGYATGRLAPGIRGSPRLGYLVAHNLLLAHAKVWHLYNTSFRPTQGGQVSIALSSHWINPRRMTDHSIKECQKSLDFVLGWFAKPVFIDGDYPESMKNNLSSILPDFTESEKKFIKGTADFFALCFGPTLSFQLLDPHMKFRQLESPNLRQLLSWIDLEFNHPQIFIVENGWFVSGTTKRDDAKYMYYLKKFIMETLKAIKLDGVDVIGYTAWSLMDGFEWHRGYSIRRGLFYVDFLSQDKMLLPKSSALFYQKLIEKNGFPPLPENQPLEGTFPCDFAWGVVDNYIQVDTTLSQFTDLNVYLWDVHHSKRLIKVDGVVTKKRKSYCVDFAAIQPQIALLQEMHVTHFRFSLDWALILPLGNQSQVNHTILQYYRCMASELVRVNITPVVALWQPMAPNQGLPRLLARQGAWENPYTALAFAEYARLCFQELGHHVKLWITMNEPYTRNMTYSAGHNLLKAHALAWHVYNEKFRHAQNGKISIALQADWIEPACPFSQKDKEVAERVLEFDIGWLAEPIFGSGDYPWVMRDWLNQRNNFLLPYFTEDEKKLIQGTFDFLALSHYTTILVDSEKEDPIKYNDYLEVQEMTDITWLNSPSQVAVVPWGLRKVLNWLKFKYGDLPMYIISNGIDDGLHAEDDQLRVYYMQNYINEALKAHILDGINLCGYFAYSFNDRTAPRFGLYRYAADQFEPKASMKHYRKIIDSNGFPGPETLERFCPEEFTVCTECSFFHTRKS", "test": "competitive Fab-phage ELISA, soluble human αKlotho against immobilised human αKlotho", "experimental": "(A) CDR sequences and VH domain framework region residues variable in Library F for anti-αKlotho sb106, according to the IMGT (international ImMunoGeneTics database) numbering scheme. IMGT CDR residues are underlined, IMGT framework region residues are not underlined, residues at IMGT positions which were randomized in the selection library are bold. (B) Specificity determination of anti-αKlotho sb106 by Fab-phage ELISA: sb106 Fab-phage were incubated with the following immobilized antigens: a complex of FGFR1c/αKlotho complex (aKL-R1), FGFR1c alone (R1), human αKlotho (Hu aKL) and mouse αKlotho (Mu aKL), or neutravidin (NA) and bovine serum albumin (BSA) as negative controls. After washing off unbound phage, bound phages were detected using an HRP-conjugated anti-phage antibody. Colorimetric HRP reagents allow for absorbance readings at 450 nm. […] The binding signals to immobilized human αKlotho reported are an average of two data sets.\nBinding selections, phage ELISAs and Fab protein purification were performed as described. Briefly, phage from library F were cycled through rounds of panning with the binary complex of αKlotho extracellular domain and FGFR1c ligand-binding domain on 96-well Maxisorp Immunoplates (Fisher Scientific, Nepean, ON, Canada) as the capture target. […]"}, "[2]": {"molecular_target": "T1, soluble human αKlotho (recombinant)", "test": "SPR (ProteOn XPR36), Fab captured by anti-IgG(H+L), human αKlotho injected in serial dilutions, Langmuir fit", "experimental": "(§1) Estimated affinities against human and mouse antigen for select αKlotho Fabs were obtained by surface plasmon resonance on a ProteOn XPR36 (FIG. 17). Fabs were captured using an anti-IgG(H+L) antibody and serial dilutions of αKlotho were injected. Binding curves were fitted to the Langmuir model. (A) Determined Kon, Koff and KD values. (B) and (C) Binding curves for human and mouse antigen respectively."}, "[3]": {"molecular_target": "T2, mouse αKlotho (mouse, UniProt O35082 35-982)", "T2 construct": "also called Mu aKL", "T2 sequence (looked up)": "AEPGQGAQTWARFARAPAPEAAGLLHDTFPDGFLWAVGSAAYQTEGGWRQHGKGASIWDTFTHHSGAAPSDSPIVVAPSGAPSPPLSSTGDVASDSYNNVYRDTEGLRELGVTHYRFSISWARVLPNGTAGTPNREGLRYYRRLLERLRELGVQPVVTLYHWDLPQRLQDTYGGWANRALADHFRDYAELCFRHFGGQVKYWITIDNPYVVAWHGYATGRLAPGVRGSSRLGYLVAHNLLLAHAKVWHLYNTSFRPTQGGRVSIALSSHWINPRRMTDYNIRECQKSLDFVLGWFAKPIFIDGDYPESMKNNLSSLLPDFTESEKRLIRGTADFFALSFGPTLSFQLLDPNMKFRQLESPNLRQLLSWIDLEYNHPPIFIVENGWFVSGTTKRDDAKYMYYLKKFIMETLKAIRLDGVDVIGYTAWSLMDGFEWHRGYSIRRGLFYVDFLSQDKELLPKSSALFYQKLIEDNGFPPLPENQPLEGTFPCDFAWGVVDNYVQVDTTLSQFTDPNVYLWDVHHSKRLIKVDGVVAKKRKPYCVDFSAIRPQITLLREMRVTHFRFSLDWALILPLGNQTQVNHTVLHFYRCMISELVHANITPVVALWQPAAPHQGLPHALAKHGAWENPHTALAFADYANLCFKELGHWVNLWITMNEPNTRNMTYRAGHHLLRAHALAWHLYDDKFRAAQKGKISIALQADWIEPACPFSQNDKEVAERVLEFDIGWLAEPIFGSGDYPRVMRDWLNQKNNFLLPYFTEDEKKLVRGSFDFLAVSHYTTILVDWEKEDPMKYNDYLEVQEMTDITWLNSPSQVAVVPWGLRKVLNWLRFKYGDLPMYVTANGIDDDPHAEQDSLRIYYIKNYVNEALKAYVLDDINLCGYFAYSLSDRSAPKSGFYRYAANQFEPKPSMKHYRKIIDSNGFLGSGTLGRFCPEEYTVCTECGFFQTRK", "test": "SPR (ProteOn XPR36), Fab captured by anti-IgG(H+L), mouse αKlotho injected in serial dilutions, Langmuir fit [continued) C.]", "experimental": "as §1"}}, "data": [{"binder": "B1", "values": [{"measurement": "IC50", "setting": "[1]", "value": 1.7, "unit": "nM"}, {"measurement": "Kd", "setting": "[2]", "value": 1.02, "unit": "nM"}, {"measurement": "koff", "setting": "[2]", "value": 0.000315, "unit": "s⁻¹"}, {"measurement": "kon", "setting": "[2]", "value": 308000, "unit": "M⁻¹ s⁻¹"}, {"measurement": "Kd", "setting": "[3]", "value": 0.784, "unit": "nM"}, {"measurement": "koff", "setting": "[3]", "value": 0.000159, "unit": "s⁻¹"}, {"measurement": "kon", "setting": "[3]", "value": 202000, "unit": "M⁻¹ s⁻¹"}]}]}
